Results from patent US20260242735A1 (UNIVERSIT T BASEL, published 2026).

B1: Refmab #4 (antibody, human IgG1, V domains shown)
VH: QVQLVQSGAEVKKPGESVKVSCKASGYTFTNYGMNWVKQAPGQGLEWMGWINTYTGEPTYADKFQGRVTMTTDTSTSTAYMEIRNLGGDDTAVYYCARWSWSDGYYVYFDYWGQGTSVTVSS
VL: DIVMTQSPDSLTVSLGERTTINCKSSQSVLDSSTNKNSLAWYQQKPGQPPKLLLSWASTRESGIPDRFSGSGSGTDFTLTIDSPQPEDSATYYCQQSAHFPITFGQGTRLEIK
notes: Tested in IgG format; human IgG1 Fc silent (PG-LALA)
B2: Refmab #1 (antibody, human IgG1, V domains shown)
VH: EVQLVQSGAEVKKPGSSVKVSCKASGYTITDSNIHWVRQAPGQSLEWIGYIYPYNGGTDYNQKFKNRATLTVDNPTNTAYMELSSLRSEDTAFYYCVNGNPWLAYWGQGTLVTVSS
VL: DIQLTQSPSTLSASVGDRVTITCRASESLDNYGIRFLTWFQQKPGKAPKLLMYAASNQGSGVPSRFSGSGSGTEFTLTISSLQPDDFATYYCQQTKEVPWSFGQGTKVEVK
notes: Tested in IgG format; human IgG1 (Absolute Antibody hP67.6, Cat. No. Ab00283-10.0); also called hP67.6

Target: human CD33 variant P48H (human, UniProt P20138 18-364)
Sequence (P20138 18-364 P48H limits assumed): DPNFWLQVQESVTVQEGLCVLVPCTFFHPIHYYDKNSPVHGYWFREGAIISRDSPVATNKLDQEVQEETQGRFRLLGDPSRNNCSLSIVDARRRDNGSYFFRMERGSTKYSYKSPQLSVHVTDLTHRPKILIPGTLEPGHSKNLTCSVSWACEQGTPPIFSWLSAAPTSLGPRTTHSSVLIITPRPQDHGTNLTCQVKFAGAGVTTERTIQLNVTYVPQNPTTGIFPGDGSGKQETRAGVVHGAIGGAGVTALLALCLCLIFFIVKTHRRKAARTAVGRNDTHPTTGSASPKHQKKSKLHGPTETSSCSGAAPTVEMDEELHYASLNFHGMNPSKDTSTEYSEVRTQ
Test: flow cytometry, IgG on cells expressing the mutant

Mean % WT Binding	Binder
2.9 % of WT	B1
97.4 % of WT	B2

Target: human CD33 variant K52E (human, UniProt P20138 18-364)
Sequence (P20138 18-364 K52E limits assumed): as the sequence (P20138 18-364 P48H limits assumed) above, with H31P, K35E counted along it
Test: flow cytometry, IgG on cells expressing the mutant

Mean % WT Binding	Binder
51.4 % of WT	B1
98.6 % of WT	B2

Target: human CD33 variant D51Y (human, UniProt P20138 18-364)
Sequence (P20138 18-364 D51Y limits assumed): as the sequence (P20138 18-364 P48H limits assumed) above, with H31P, D34Y counted along it
Test: flow cytometry, IgG on cells expressing the mutant

Mean % WT Binding	Binder
61.9 % of WT	B1
94.4 % of WT	B2

Target: human CD33 variant Y127E (human, UniProt P20138 18-364)
Sequence (P20138 18-364 Y127E limits assumed): as the sequence (P20138 18-364 P48H limits assumed) above, with H31P, Y110E counted along it
Test: flow cytometry, IgG on cells expressing the mutant

Mean % WT Binding	Binder
104 % of WT	B1
79.2 % of WT	B2

Target: human CD33 variant P48K (human, UniProt P20138 18-364)
Sequence (P20138 18-364 P48K limits assumed): as the sequence (P20138 18-364 P48H limits assumed) above, with H31K counted along it
Test: flow cytometry, IgG on cells expressing the mutant

Mean % WT Binding	Binder
0 % of WT	B1
99.4 % of WT	B2

Target: human CD33 variant R122T (human, UniProt P20138 18-364)
Sequence (P20138 18-364 R122T limits assumed): as the sequence (P20138 18-364 P48H limits assumed) above, with H31P, R105T counted along it
Test: flow cytometry, IgG on cells expressing the mutant

Mean % WT Binding	Binder
93.2 % of WT	B1
113 % of WT	B2

Target: human CD33 variant P48Q (human, UniProt P20138 18-364)
Sequence (P20138 18-364 P48Q limits assumed): as the sequence (P20138 18-364 P48H limits assumed) above, with H31Q counted along it
Test: flow cytometry, IgG on cells expressing the mutant

Mean % WT Binding	Binder
2.1 % of WT	B1
120 % of WT	B2

Target: human CD33 variant P48M (human, UniProt P20138 18-364)
Sequence (P20138 18-364 P48M limits assumed): as the sequence (P20138 18-364 P48H limits assumed) above, with H31M counted along it
Test: flow cytometry, IgG on cells expressing the mutant

Mean % WT Binding	Binder
1.3 % of WT	B1
110 % of WT	B2

Target: human CD33 variant P48W (human, UniProt P20138 18-364)
Sequence (P20138 18-364 P48W limits assumed): as the sequence (P20138 18-364 P48H limits assumed) above, with H31W counted along it
Test: flow cytometry, IgG on cells expressing the mutant

Mean % WT Binding	Binder
1.3 % of WT	B1
95.6 % of WT	B2

Target: human CD33 variant Y50N (human, UniProt P20138 18-364)
Sequence (P20138 18-364 Y50N limits assumed): as the sequence (P20138 18-364 P48H limits assumed) above, with H31P, Y33N counted along it
Test: flow cytometry, IgG on cells expressing the mutant

Mean % WT Binding	Binder
2.3 % of WT	B1
96.3 % of WT	B2

Target: human CD33 variant R122S (human, UniProt P20138 18-364)
Sequence (P20138 18-364 R122S limits assumed): as the sequence (P20138 18-364 P48H limits assumed) above, with H31P, R105S counted along it
Test: flow cytometry, IgG on cells expressing the mutant

Mean % WT Binding	Binder
90.2 % of WT	B1
111 % of WT	B2

Target: human CD33 variant Y49L (human, UniProt P20138 18-364)
Sequence (P20138 18-364 Y49L limits assumed): as the sequence (P20138 18-364 P48H limits assumed) above, with H31P, Y32L counted along it
Test: flow cytometry, IgG on cells expressing the mutant

Mean % WT Binding	Binder
110 % of WT	B1
100 % of WT	B2

Target: human CD33 variant K52T (human, UniProt P20138 18-364)
Sequence (P20138 18-364 K52T limits assumed): as the sequence (P20138 18-364 P48H limits assumed) above, with H31P, K35T counted along it
Test: flow cytometry, IgG on cells expressing the mutant

Mean % WT Binding	Binder
83.5 % of WT	B1
102 % of WT	B2

Target: human CD33 variant I47E (human, UniProt P20138 18-364)
Sequence (P20138 18-364 I47E limits assumed): as the sequence (P20138 18-364 P48H limits assumed) above, with I30E, H31P counted along it
Test: flow cytometry, IgG on cells expressing the mutant

Mean % WT Binding	Binder
54.8 % of WT	B1
101 % of WT	B2

Target: human CD33 variant Y50I (human, UniProt P20138 18-364)
Sequence (P20138 18-364 Y50I limits assumed): as the sequence (P20138 18-364 P48H limits assumed) above, with H31P, Y33I counted along it
Test: flow cytometry, IgG on cells expressing the mutant

Mean % WT Binding	Binder
4.5 % of WT	B1
99.2 % of WT	B2

Target: human CD33 variant Y50S (human, UniProt P20138 18-364)
Sequence (P20138 18-364 Y50S limits assumed): as the sequence (P20138 18-364 P48H limits assumed) above, with H31P, Y33S counted along it
Test: flow cytometry, IgG on cells expressing the mutant

Mean % WT Binding	Binder
2.9 % of WT	B1
101 % of WT	B2

Target: human CD33 variant Y50P (human, UniProt P20138 18-364)
Sequence (P20138 18-364 Y50P limits assumed): as the sequence (P20138 18-364 P48H limits assumed) above, with H31P, Y33P counted along it
Test: flow cytometry, IgG on cells expressing the mutant

Mean % WT Binding	Binder
85.6 % of WT	B1
98.1 % of WT	B2

Target: human CD33 variant K52D (human, UniProt P20138 18-364)
Sequence (P20138 18-364 K52D limits assumed): as the sequence (P20138 18-364 P48H limits assumed) above, with H31P, K35D counted along it
Test: flow cytometry, IgG on cells expressing the mutant

Mean % WT Binding	Binder
9.4 % of WT	B1
101 % of WT	B2

Target: human CD33 variant Y49H (human, UniProt P20138 18-364)
Sequence (P20138 18-364 Y49H limits assumed): as the sequence (P20138 18-364 P48H limits assumed) above, with H31P, Y32H counted along it
Test: flow cytometry, IgG on cells expressing the mutant

Mean % WT Binding	Binder
95.1 % of WT	B1
89.1 % of WT	B2

Target: human CD33 variant I47F (human, UniProt P20138 18-364)
Sequence (P20138 18-364 I47F limits assumed): as the sequence (P20138 18-364 P48H limits assumed) above, with I30F, H31P counted along it
Test: flow cytometry, IgG on cells expressing the mutant

Mean % WT Binding	Binder
102 % of WT	B1
101 % of WT	B2

Target: human CD33 variant R122F (human, UniProt P20138 18-364)
Sequence (P20138 18-364 R122F limits assumed): as the sequence (P20138 18-364 P48H limits assumed) above, with H31P, R105F counted along it
Test: flow cytometry, IgG on cells expressing the mutant

Mean % WT Binding	Binder
58.1 % of WT	B1
110 % of WT	B2

Target: human CD33 variant Y50H (human, UniProt P20138 18-364)
Sequence (P20138 18-364 Y50H limits assumed): as the sequence (P20138 18-364 P48H limits assumed) above, with H31P, Y33H counted along it
Test: flow cytometry, IgG on cells expressing the mutant

Mean % WT Binding	Binder
2 % of WT	B1
103 % of WT	B2

Target: human CD33 variant Y127R (human, UniProt P20138 18-364)
Sequence (P20138 18-364 Y127R limits assumed): as the sequence (P20138 18-364 P48H limits assumed) above, with H31P, Y110R counted along it
Test: flow cytometry, IgG on cells expressing the mutant

Mean % WT Binding	Binder
116 % of WT	B1
84 % of WT	B2

Target: human CD33 variant K52L (human, UniProt P20138 18-364)
Sequence (P20138 18-364 K52L limits assumed): as the sequence (P20138 18-364 P48H limits assumed) above, with H31P, K35L counted along it
Test: flow cytometry, IgG on cells expressing the mutant

Mean % WT Binding	Binder
88.1 % of WT	B1
97.6 % of WT	B2

Target: human CD33 variant D51N (human, UniProt P20138 18-364)
Sequence (P20138 18-364 D51N limits assumed): as the sequence (P20138 18-364 P48H limits assumed) above, with H31P, D34N counted along it
Test: flow cytometry, IgG on cells expressing the mutant

Mean % WT Binding	Binder
76.4 % of WT	B1
99 % of WT	B2

Target: human CD33 variant Y50D (human, UniProt P20138 18-364)
Sequence (P20138 18-364 Y50D limits assumed): as the sequence (P20138 18-364 P48H limits assumed) above, with H31P, Y33D counted along it
Test: flow cytometry, IgG on cells expressing the mutant

Mean % WT Binding	Binder
0.9 % of WT	B1
115 % of WT	B2

Target: human CD33 variant Y49P (human, UniProt P20138 18-364)
Sequence (P20138 18-364 Y49P limits assumed): as the sequence (P20138 18-364 P48H limits assumed) above, with H31P, Y32P counted along it
Test: flow cytometry, IgG on cells expressing the mutant

Mean % WT Binding	Binder
1.2 % of WT	B1
92.5 % of WT	B2

Target: human CD33 variant K52H (human, UniProt P20138 18-364)
Sequence (P20138 18-364 K52H limits assumed): as the sequence (P20138 18-364 P48H limits assumed) above, with H31P, K35H counted along it
Test: flow cytometry, IgG on cells expressing the mutant

Mean % WT Binding	Binder
75.1 % of WT	B1
94.2 % of WT	B2

Target: human CD33 variant Y50Q (human, UniProt P20138 18-364)
Sequence (P20138 18-364 Y50Q limits assumed): as the sequence (P20138 18-364 P48H limits assumed) above, with H31P, Y33Q counted along it
Test: flow cytometry, IgG on cells expressing the mutant

Mean % WT Binding	Binder
3.2 % of WT	B1
93.9 % of WT	B2

Target: human CD33 variant R122I (human, UniProt P20138 18-364)
Sequence (P20138 18-364 R122I limits assumed): as the sequence (P20138 18-364 P48H limits assumed) above, with H31P, R105I counted along it
Test: flow cytometry, IgG on cells expressing the mutant

Mean % WT Binding	Binder
85.8 % of WT	B1
110 % of WT	B2

Target: human CD33 variant P48S (human, UniProt P20138 18-364)
Sequence (P20138 18-364 P48S limits assumed): as the sequence (P20138 18-364 P48H limits assumed) above, with H31S counted along it
Test: flow cytometry, IgG on cells expressing the mutant

Mean % WT Binding	Binder
0.5 % of WT	B1
97.5 % of WT	B2

Target: human CD33 variant K52I (human, UniProt P20138 18-364)
Sequence (P20138 18-364 K52I limits assumed): as the sequence (P20138 18-364 P48H limits assumed) above, with H31P, K35I counted along it
Test: flow cytometry, IgG on cells expressing the mutant

Mean % WT Binding	Binder
61.9 % of WT	B1
89.2 % of WT	B2

Target: human CD33 variant R122G (human, UniProt P20138 18-364)
Sequence (P20138 18-364 R122G limits assumed): as the sequence (P20138 18-364 P48H limits assumed) above, with H31P, R105G counted along it
Test: flow cytometry, IgG on cells expressing the mutant

Mean % WT Binding	Binder
91.3 % of WT	B1
109 % of WT	B2

Target: human CD33 variant K52F (human, UniProt P20138 18-364)
Sequence (P20138 18-364 K52F limits assumed): as the sequence (P20138 18-364 P48H limits assumed) above, with H31P, K35F counted along it
Test: flow cytometry, IgG on cells expressing the mutant

Mean % WT Binding	Binder
3.5 % of WT	B1
4.5 % of WT	B2

Target: human CD33 variant Y49V (human, UniProt P20138 18-364)
Sequence (P20138 18-364 Y49V limits assumed): as the sequence (P20138 18-364 P48H limits assumed) above, with H31P, Y32V counted along it
Test: flow cytometry, IgG on cells expressing the mutant

Mean % WT Binding	Binder
46.9 % of WT	B1
101 % of WT	B2

Target: human CD33 variant P48N (human, UniProt P20138 18-364)
Sequence (P20138 18-364 P48N limits assumed): as the sequence (P20138 18-364 P48H limits assumed) above, with H31N counted along it
Test: flow cytometry, IgG on cells expressing the mutant

Mean % WT Binding	Binder
3.8 % of WT	B1
100 % of WT	B2
